The values that follow come from article PMC7954794 (2021).

B1: S. cerevisiae Abp1 (full length; SH3 domain 535-592 mutated) / Hua2 (parent complex)
chain 1: MALEPIDYTTHSREIDAEYLKIVRGSDPDTTWLIISPNAKKEYEPESTGSSFHDFLQLFDETKVQYGLARVSPPGSDVEKIIIIGWCPDSAPLKTRASFAANFAAVANNLFKGYHVQVTARDEDDLDENELLMKISNAAGARYSIQTSSKQQGKASTPPVKKSFTPSKSPAPVSKKEPVKTPSPAPAAKISSRVNDNNDDDDWNEPELKERDFDQAPLKPNQSSYKPIGKIDLQKVIAEEKAKEDPRLVQKPTAAGSKIDPSSDIANLKNESKLKRDSEFNSFLGTTKPPSMTESSLKNDDDKVIKGFRNEKSPAQLWAERKAKQNSGNAETKAEAPKPEVPEDEPEGEPDVKDLKSKFEGLAASEKEEEEMENKFAPPPKKSEPTIISPKPFSKPQEPVKAEEAEQPKTDYKKIGNPLPGMHIEADNEEEPEENDDDWDDDEDEAAQPPLPSRNVASGAPVQKEEPEQEEIAPSLPSRNSIPAPKQEEAPEQAPEEEIEEEAEEAAPQLPSRSSAAPPPPPRRATPEKKPKENPWATAEYDYDAAEDNELTFVENDKIINIEFVDDDWWLGELEKDGSKGLFPSNYVSLGN
chain 2: MQQTKFGKMYLDHDSVVEYSEDEIVEADRITLGYKKRLSMIENQMRHLLEDFSLDVQQIEPILADLQKYYDAFLQLLQKRNKSLQCKRSTHQPVPSPMNSQTSTNAKVNLSGKLMKFQLNSVQKFDEENILRILQNKIEFEHYFQIDKGKKQKVLLLAVYQCLNGPTRLHKVLNIEGIIHNNSIRTILGKQVSSSKWTVFLYDVKLVLLAHRQDVPNLETSKMIVRYGDLFPCALYFKDHTAY

The variants in this test derive from B1. The test is described as follows: DHFR protein-fragment complementation in yeast (Abp1-DHFR F[1,2] x partner-DHFR F[3]), deep mutational scanning, second methotrexate selection vs reference; S. cerevisiae, DHFR-PCA selection in liquid with methotrexate at 30 C, two 72 h selections (the score uses the second); reference = the pre-selection culture.
Turning to chain 1 N592R, the screen value was 0.515 DMS score: mean over two replicates of log2(f_test/f_ref + 0.5)/ln 2, minus the synonymous-codon median (not a log2 …. As to chain 1 N592V, the screen value was 0.252 DMS score: mean over two replicates of log2(f_test/f_ref + 0.5)/ln 2, minus the synonymous-codon median (not a log2 ….

As for chain 1 N592Y, the screen value was 0.405 DMS score: mean over two replicates of log2(f_test/f_ref + 0.5)/ln 2, minus the synonymous-codon median (not a log2 ….

As to chain 1 N592L, the screen value was 0.472 DMS score: mean over two replicates of log2(f_test/f_ref + 0.5)/ln 2, minus the synonymous-codon median (not a log2 …. Regarding chain 1 N592P, the screen value is 0.755 DMS score: mean over two replicates of log2(f_test/f_ref + 0.5)/ln 2, minus the synonymous-codon median (not a log2 …. In the case of chain 1 N592I, the screen value is 0.311 DMS score: mean over two replicates of log2(f_test/f_ref + 0.5)/ln 2, minus the synonymous-codon median (not a log2 …. On to chain 1 N592K, for which the screen value was -0.463 DMS score: mean over two replicates of log2(f_test/f_ref + 0.5)/ln 2, minus the synonymous-codon median (not a log2 …. Turning to chain 1 N561H, the screen value is -0.956 DMS score: mean over two replicates of log2(f_test/f_ref + 0.5)/ln 2, minus the synonymous-codon median (not a log2 …. As to chain 1 W569Y, the screen value is -0.138 DMS score: mean over two replicates of log2(f_test/f_ref + 0.5)/ln 2, minus the synonymous-codon median (not a log2 …. Regarding chain 1 P535F, the screen value was 0.0686 DMS score: mean over two replicates of log2(f_test/f_ref + 0.5)/ln 2, minus the synonymous-codon median (not a log2 …. In the case of chain 1 P535Y, the screen value was 0.518 DMS score: mean over two replicates of log2(f_test/f_ref + 0.5)/ln 2, minus the synonymous-codon median (not a log2 …. As to chain 1 P535G, the screen value was -0.0677 DMS score: mean over two replicates of log2(f_test/f_ref + 0.5)/ln 2, minus the synonymous-codon median (not a log2 …. chain 1 P535N: the screen value is 0.729 DMS score: mean over two replicates of log2(f_test/f_ref + 0.5)/ln 2, minus the synonymous-codon median (not a log2 …. In the case of chain 1 P535C, the screen value was 1.46 DMS score: mean over two replicates of log2(f_test/f_ref + 0.5)/ln 2, minus the synonymous-codon median (not a log2 …. Regarding chain 1 N586H, the screen value was -1.55 DMS score: mean over two replicates of log2(f_test/f_ref + 0.5)/ln 2, minus the synonymous-codon median (not a log2 …. On to chain 1 N586E, for which the screen value was -1.53 DMS score: mean over two replicates of log2(f_test/f_ref + 0.5)/ln 2, minus the synonymous-codon median (not a log2 …. Regarding chain 1 N586L, the screen value was -0.863 DMS score: mean over two replicates of log2(f_test/f_ref + 0.5)/ln 2, minus the synonymous-codon median (not a log2 ….

Take chain 1 N586M: the screen value is 2.45 DMS score: mean over two replicates of log2(f_test/f_ref + 0.5)/ln 2, minus the synonymous-codon median (not a log2 …. Consider chain 1 N586K, for which the screen value was -1.55 DMS score: mean over two replicates of log2(f_test/f_ref + 0.5)/ln 2, minus the synonymous-codon median (not a log2 ….

As for chain 1 N586P, the screen value was -0.0573 DMS score: mean over two replicates of log2(f_test/f_ref + 0.5)/ln 2, minus the synonymous-codon median (not a log2 …. On to chain 1 N586I, for which the screen value is 0.632 DMS score: mean over two replicates of log2(f_test/f_ref + 0.5)/ln 2, minus the synonymous-codon median (not a log2 …. With chain 1 T538C the figure was -0.268 DMS score: mean over two replicates of log2(f_test/f_ref + 0.5)/ln 2, minus the synonymous-codon median (not a log2 …; with chain 1 T538R, 0.298 DMS score: mean over two replicates of log2(f_test/f_ref + 0.5)/ln 2, minus the synonymous-codon median (not a log2 …; with chain 1 T538Y, -0.148 DMS score: mean over two replicates of log2(f_test/f_ref + 0.5)/ln 2, minus the synonymous-codon median (not a log2 …. On to chain 1 T538K, for which the screen value was -0.703 DMS score: mean over two replicates of log2(f_test/f_ref + 0.5)/ln 2, minus the synonymous-codon median (not a log2 …. As for chain 1 T538V, the screen value was 0.524 DMS score: mean over two replicates of log2(f_test/f_ref + 0.5)/ln 2, minus the synonymous-codon median (not a log2 …. chain 1 E547Y: the screen value was -0.85 DMS score: mean over two replicates of log2(f_test/f_ref + 0.5)/ln 2, minus the synonymous-codon median (not a log2 …. Take chain 1 A546M: the screen value was -0.41 DMS score: mean over two replicates of log2(f_test/f_ref + 0.5)/ln 2, minus the synonymous-codon median (not a log2 ….

Turning to chain 1 A546Q, the screen value is 1.19 DMS score: mean over two replicates of log2(f_test/f_ref + 0.5)/ln 2, minus the synonymous-codon median (not a log2 …. chain 1 A546R: the screen value is -1.4 DMS score: mean over two replicates of log2(f_test/f_ref + 0.5)/ln 2, minus the synonymous-codon median (not a log2 …. As to chain 1 A546Y, the screen value was -0.447 DMS score: mean over two replicates of log2(f_test/f_ref + 0.5)/ln 2, minus the synonymous-codon median (not a log2 …. With chain 1 A546F the figure was -0.502 DMS score: mean over two replicates of log2(f_test/f_ref + 0.5)/ln 2, minus the synonymous-codon median (not a log2 ….

Consider chain 1 I559V, for which the screen value is -0.155 DMS score: mean over two replicates of log2(f_test/f_ref + 0.5)/ln 2, minus the synonymous-codon median (not a log2 ….

With chain 1 D566N, the screen value was -1.27 DMS score: mean over two replicates of log2(f_test/f_ref + 0.5)/ln 2, minus the synonymous-codon median (not a log2 ….

chain 1 D566E: the screen value was -1.31 DMS score: mean over two replicates of log2(f_test/f_ref + 0.5)/ln 2, minus the synonymous-codon median (not a log2 ….

In the case of chain 1 D566H, the screen value was -2.26 DMS score: mean over two replicates of log2(f_test/f_ref + 0.5)/ln 2, minus the synonymous-codon median (not a log2 ….

chain 1 D566Y: the screen value is -2.1 DMS score: mean over two replicates of log2(f_test/f_ref + 0.5)/ln 2, minus the synonymous-codon median (not a log2 …. For chain 1 S589V, the screen value is 0.593 DMS score: mean over two replicates of log2(f_test/f_ref + 0.5)/ln 2, minus the synonymous-codon median (not a log2 ….

Regarding chain 1 S589M, the screen value was -0.0692 DMS score: mean over two replicates of log2(f_test/f_ref + 0.5)/ln 2, minus the synonymous-codon median (not a log2 …. In the case of chain 1 S589E, the screen value is 1.15 DMS score: mean over two replicates of log2(f_test/f_ref + 0.5)/ln 2, minus the synonymous-codon median (not a log2 …. For chain 1 S589A, the screen value was 0.074 DMS score: mean over two replicates of log2(f_test/f_ref + 0.5)/ln 2, minus the synonymous-codon median (not a log2 ….

Consider chain 1 S589K, for which the screen value is 0.37 DMS score: mean over two replicates of log2(f_test/f_ref + 0.5)/ln 2, minus the synonymous-codon median (not a log2 …. Turning to chain 1 E540G, the screen value was -1.94 DMS score: mean over two replicates of log2(f_test/f_ref + 0.5)/ln 2, minus the synonymous-codon median (not a log2 ….

For the variant chain 1 E540Q, the screen value was -1.08 DMS score: mean over two replicates of log2(f_test/f_ref + 0.5)/ln 2, minus the synonymous-codon median (not a log2 …. For chain 1 E540R, the screen value is -2.88 DMS score: mean over two replicates of log2(f_test/f_ref + 0.5)/ln 2, minus the synonymous-codon median (not a log2 ….

In the case of chain 1 E540S, the screen value was -1.11 DMS score: mean over two replicates of log2(f_test/f_ref + 0.5)/ln 2, minus the synonymous-codon median (not a log2 ….

Turning to chain 1 E540T, the screen value is -0.981 DMS score: mean over two replicates of log2(f_test/f_ref + 0.5)/ln 2, minus the synonymous-codon median (not a log2 …. For chain 1 E540N, the screen value is -1.77 DMS score: mean over two replicates of log2(f_test/f_ref + 0.5)/ln 2, minus the synonymous-codon median (not a log2 ….

In the case of chain 1 E540Y, the screen value was -2.86 DMS score: mean over two replicates of log2(f_test/f_ref + 0.5)/ln 2, minus the synonymous-codon median (not a log2 …. chain 1 E540D: the screen value is 0.44 DMS score: mean over two replicates of log2(f_test/f_ref + 0.5)/ln 2, minus the synonymous-codon median (not a log2 …. chain 1 K576E: the screen value is -0.947 DMS score: mean over two replicates of log2(f_test/f_ref + 0.5)/ln 2, minus the synonymous-codon median (not a log2 …. As for chain 1 K576A, the screen value was -0.373 DMS score: mean over two replicates of log2(f_test/f_ref + 0.5)/ln 2, minus the synonymous-codon median (not a log2 …. Turning to chain 1 K576C, the screen value is -0.496 DMS score: mean over two replicates of log2(f_test/f_ref + 0.5)/ln 2, minus the synonymous-codon median (not a log2 ….

As for chain 1 K576R, the screen value is 0.467 DMS score: mean over two replicates of log2(f_test/f_ref + 0.5)/ln 2, minus the synonymous-codon median (not a log2 …. With chain 1 L571N the figure was -0.368 DMS score: mean over two replicates of log2(f_test/f_ref + 0.5)/ln 2, minus the synonymous-codon median (not a log2 ….

chain 1 L571K: the screen value was -0.248 DMS score: mean over two replicates of log2(f_test/f_ref + 0.5)/ln 2, minus the synonymous-codon median (not a log2 …. In the case of chain 1 L571T, the screen value was -0.86 DMS score: mean over two replicates of log2(f_test/f_ref + 0.5)/ln 2, minus the synonymous-codon median (not a log2 …. chain 1 L571I: the screen value is -0.705 DMS score: mean over two replicates of log2(f_test/f_ref + 0.5)/ln 2, minus the synonymous-codon median (not a log2 …. For the variant chain 1 L571S, the screen value is -0.425 DMS score: mean over two replicates of log2(f_test/f_ref + 0.5)/ln 2, minus the synonymous-codon median (not a log2 …. The result for chain 1 L571H reads 0.744 DMS score: mean over two replicates of log2(f_test/f_ref + 0.5)/ln 2, minus the synonymous-codon median (not a log2 …. With chain 1 L571V, the screen value was -0.465 DMS score: mean over two replicates of log2(f_test/f_ref + 0.5)/ln 2, minus the synonymous-codon median (not a log2 …. Turning to chain 1 V565T, the screen value is 0.578 DMS score: mean over two replicates of log2(f_test/f_ref + 0.5)/ln 2, minus the synonymous-codon median (not a log2 …. As for chain 1 F553M, the screen value was 0.868 DMS score: mean over two replicates of log2(f_test/f_ref + 0.5)/ln 2, minus the synonymous-codon median (not a log2 …. As to chain 1 S585N, the screen value is -0.135 DMS score: mean over two replicates of log2(f_test/f_ref + 0.5)/ln 2, minus the synonymous-codon median (not a log2 …. For the variant chain 1 V554Q, the screen value is 0.94 DMS score: mean over two replicates of log2(f_test/f_ref + 0.5)/ln 2, minus the synonymous-codon median (not a log2 …. Take chain 1 L590M: the screen value was -0.242 DMS score: mean over two replicates of log2(f_test/f_ref + 0.5)/ln 2, minus the synonymous-codon median (not a log2 …. Consider chain 1 L590V, for which the screen value was -0.52 DMS score: mean over two replicates of log2(f_test/f_ref + 0.5)/ln 2, minus the synonymous-codon median (not a log2 …. As to chain 1 L590I, the screen value was 0.43 DMS score: mean over two replicates of log2(f_test/f_ref + 0.5)/ln 2, minus the synonymous-codon median (not a log2 …. Regarding chain 1 I560R, the screen value was 0.102 DMS score: mean over two replicates of log2(f_test/f_ref + 0.5)/ln 2, minus the synonymous-codon median (not a log2 …. For chain 1 I560K, the screen value is 0.427 DMS score: mean over two replicates of log2(f_test/f_ref + 0.5)/ln 2, minus the synonymous-codon median (not a log2 …. Take chain 1 I560F: the screen value is -0.852 DMS score: mean over two replicates of log2(f_test/f_ref + 0.5)/ln 2, minus the synonymous-codon median (not a log2 …. chain 1 I560T: the screen value was -0.415 DMS score: mean over two replicates of log2(f_test/f_ref + 0.5)/ln 2, minus the synonymous-codon median (not a log2 …. In the case of chain 1 I560E, the screen value is -0.924 DMS score: mean over two replicates of log2(f_test/f_ref + 0.5)/ln 2, minus the synonymous-codon median (not a log2 …. For chain 1 Y541A, the screen value was -1.6 DMS score: mean over two replicates of log2(f_test/f_ref + 0.5)/ln 2, minus the synonymous-codon median (not a log2 ….

With chain 1 E575Y, the screen value is -0.704 DMS score: mean over two replicates of log2(f_test/f_ref + 0.5)/ln 2, minus the synonymous-codon median (not a log2 ….
